Measurements taken from article PMC10204415 (2023).

Columns and labels:
[1] = target: T1, MBP-ARHGEF11 (mouse ARHGEF11 residues 1334–1406, except for deleted residues 1352–1394 by alternative … (mouse, UniProt Q68FM7 1334-1406, deleted residues 1352–1394 by alternative splicing)); test: replicate 2; without BSA blocking
[2] = target: T1, MBP-ARHGEF11 (mouse ARHGEF11 residues …); test: replicate 3; without BSA blocking
[3] = target: T1, MBP-ARHGEF11 (mouse ARHGEF11 residues …); test: replicate 3; GSA-immobilized MBP-ARHGEF11, CDNB assay
[4] = target: T1, MBP-ARHGEF11 (mouse ARHGEF11 residues …); test: replicate 1; without BSA blocking
[5] = target: T1, MBP-ARHGEF11 (mouse ARHGEF11 residues …); test: replicate 1; GSA-immobilized MBP-ARHGEF11, CDNB assay
[6] = target: T1, MBP-ARHGEF11 (mouse ARHGEF11 residues …); test: replicate 2; GSA-immobilized MBP-ARHGEF11, CDNB assay

T1 sequence (Q68FM7 entry or part of it deleted residues 1352–1394 by alternative splicing): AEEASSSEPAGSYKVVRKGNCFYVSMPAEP

B1: GST-ZO1-ZU5 (mouse ZO-1 ZU5 domain, residues 1624–1745) (domain or fragment)
chain: EDGHTVVATARGIFNSNGGVLSSIETGVSIIIPQGAIPEGIEQEIYFKVCRDNSILPPLDKEKGETLLSPLVMCGPHGLKFLKPVELRLPHCDPKTWQNKCLPGDPNYLVGANCVSVLIDHF
How did the Kd [1] turn out when B1 was run?
The Kd was 10.9 µM.

What about the Kd [2] of the same binder?
Its Kd is 14.7 µM.

What about the Kd [3] of the same binder?
Its Kd is 56 µM.

And the Kd [4]?
Its Kd is 8.7 µM.

And the Kd [5]?
The Kd was 37.3 µM.

What about the Kd [6] of the same binder?
Its Kd is 28 µM.
